Legend:
[1] = molecular target: T1, CD63 (endogenous, on WT 293F cells) (UniProt P08962 2-238, limits assumed); assay: flow cytometry of CP05-Cy5 on WT 293F cells against 293F/CD63-/- cells
T1 construct: whole, on cells; Compared with the 293F/CD63-/- knockout line as the negative control; also called WT CD63
T1 sequence (looked up): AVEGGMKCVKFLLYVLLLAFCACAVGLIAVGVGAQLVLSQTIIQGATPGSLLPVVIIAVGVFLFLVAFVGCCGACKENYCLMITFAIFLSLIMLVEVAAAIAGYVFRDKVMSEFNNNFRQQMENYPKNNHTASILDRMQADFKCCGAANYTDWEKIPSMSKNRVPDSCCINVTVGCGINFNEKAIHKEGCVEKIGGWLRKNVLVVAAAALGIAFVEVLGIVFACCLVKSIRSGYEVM
Experimental: (§1) For measurement of surface CD63 abundance and Cy5-CP05 peptide binding, cells were washed in HBSS, released from tissue culture plates using trypsin/EDTA solution, and resuspended at a concentration of 1×10^7 cells per ml in HBSS. Cell suspensions were maintained on ice, diluted to a concentration of 1×10^6 cells per ml, incubated with either (i) fluorescently labeled anti-CD63 antibody (catalog no.: 353006; BioLegend) or (ii) CY5-labeled CP05 peptide (NH2-[…](K/Cy5)-amide; Vivitide; molecular weight=[…]). Following the binding reaction, cells were washed five times in PBS and then examined by flow cytometry on a Beckman CytoFlex flow cytometer set at the appropriate excitation and emission wavelengths. The relative brightness was determined for thousands of individual cells in each cell line using Beckman CytExpert software (version 2.3.1.22) to calculate average brightness and CV as well as to generate scatter plots and histograms.
(§2) To determine whether these mutations led to a drop in the cell surface expression of CD63, cell lines were interrogated: the 293F/CD63^{-/-} cell line, the parental 293F cell line, and the F/YA24 cell line by flow cytometry, using a commercially available fluorescently tagged monoclonal anti-CD63 antibody. […]

[2] = molecular target: T2, CD63/Y235A (on F/YA24 cells) (UniProt P08962 2-238, limits assumed); assay: flow cytometry of CP05-Cy5 on F/YA24 cells against 293F and 293F/CD63-/- cells
T2 construct: whole, on cells; F/YA24 cells also carry the endogenous CD63 of 293F cells; also called mutant form of CD63
T2 sequence (looked up): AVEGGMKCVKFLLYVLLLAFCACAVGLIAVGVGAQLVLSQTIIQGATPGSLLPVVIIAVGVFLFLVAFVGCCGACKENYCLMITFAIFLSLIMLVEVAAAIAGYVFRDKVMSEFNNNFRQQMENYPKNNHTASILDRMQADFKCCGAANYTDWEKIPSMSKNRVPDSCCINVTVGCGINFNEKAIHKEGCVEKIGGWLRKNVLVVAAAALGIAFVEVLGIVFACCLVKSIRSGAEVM
Experimental: as §1, §2

B1: Cy5-labeled CP05 peptide (NH2-CRHSQMTVTSRL(K/Cy5)-amide) (peptide)
peptide: H-CRHSQMTVTSRLK(Cy5)-NH2
notes: Synthetic peptide (Vivitide); the labeled peptide used in the assay has one more Lys(Cy5) and a C-terminal amide; also called CP05-Cy5; Cy5-CP05 peptide
- binding result [1]: no binding (tested: 0.34 µM and 3.4 µM CP05-Cy5)
- binding result [2]: no binding (tested: 0.34 µM and 3.4 µM CP05-Cy5)

Reference: US20260185108A1 (Johns Hopkins, published 2026)
